Tested on: PC-3 PIP/flu (PSMA+/PSMA–) tumor xenografts
Assay: in vivo
Protocol: For in vivo evaluation, athymic nude mice-bearing bilateral PC-3 PIP/flu (PSMA^+/PSMA^–) tumor xenografts were used (Figure ).
5.1.1 Urine metabolite analysis
Metabolite analysis was performed by analyzing aliquots of 100 µL of mouse urine collected during biodistribution studies. If the collected urine volume was less than 100 µL, 1X DPBS was added in order to bring it up to a final volume of 100 µL. In cases where the radioactivity present in urine decayed to levels too low for detection by HPLC, fractions eluted from the radioHPLC were collected every 30 seconds, and the amount of radioactivity was estimated via gamma counting (Hidex Automatic Gamma Counter). The chromatogram was then reconstructed by plotting the recorded counts per minute recorded for each fraction […]
5.2 In vitro optical imaging
Tumor tissues were harvested from male, nude, athymic mice bearing xenografts from PC3-PIP (PSMA+) and PC3-flu (PSMA-) were fixed for (24) hours in 10% neutral buffered formalin, processed and embedded into paraffin blocks. Tissues were sectioned at 5µm, dried and then deparaffinized with a 25-minute oven bake at 60°C, followed by a series of xylene and alcohol washes
Antigens were prepared in PerkinElmer’s 1X Antigen Retrieval pH 9.0 (AR900250ML) for 8 minutes in the microwave. Tissue sections were blocked with 1X Antibody Diluent/Block buffer (Akoya).
Ab-PSMA, natEu-pepa-pic2-C-Hex-KuE and DAPI staining.
Tissues were stained with Ab-PSMA (Ventana 760-6076; 11.75 µg/mL; 100uL per slide) for 30 minutes at room temperature. Slides were washed with TBS-T and secondary goat anti-rabbit was applied for 10 minutes at room temperature. Slides were washed with TBS-T and Akoya’s Opal dye 520 was applied for 10 minutes at room temperature. Antigen retrieval and blocking steps were performed again.
An aqueous solution of natEu-pepa-pic2-C-Hex-KuE (10 µM) was diluted at 1:1 with 1X Diluent/Block (Akoya) and 100 µL were applied per slide for 2 hours at room temperature. For DAPI staining, DAPI working solution (Akoya) was applied for 10 minutes at room temperature before mounting with ProLong™ Gold Antifade Mountant. Slides were imaged by Nuance Multispectral Scope at 20x objective.
5.3 In vivo biodistribution in PSMA +/- mice models, PET-CT and SPECT imaging.
Male, nude, athymic mice were purchased from Jackson Laboratory. Ten days preceding the imaging study, mice were implanted with 1 × 10^6 cells (PC-3 PIP on the right, PC-3 flu on the left shoulder) in 100 µL of a 1:2 mixture of DPBS 1X/matrigel matrix subcutaneously.
A solution of 100 µL of labeled radiotracer was administered via tail vein injection into 8–10-week-old male nude mice (n = 4 per cohort) bearing PSMA+/- tumors.
For biodistribution studies, mice were euthanized at 2 hours (n=4) post-injection of the radio tracer. Organs were extracted, intestinal content removed, and activity assessed via a gamma counter. Biodistribution analysis values are represented as percentage of injected dose per gram of organ weight (% ID/g).

[1] = 2 h post injection, n = 4, listed as [86Y]YIII-pepa-pic2-C-Hex-KuE

## COCCOCCOCCOc1ccc(C#Cc2cc(CN3CCN(Cc4cccc(C(=O)O)n4)CCN(Cc4cc(SC[C@H](N)C(=O)NCCCCCC(=O)NCCCC[C@H](NC(=O)N[C@@H](CCC(=O)O)C(=O)O)C(=O)O)cc(C(=O)O)n4)CC3)nc(C(=O)O)c2)cc1 [[86Y]Y-pepa-pic2-C-Hex-KuE, metal not drawn]
[1]
  Blood: 1.22 ± 1.01 % ID/g
  Bone: 0.74 ± 0.21 % ID/g
  Heart: 0.54 ± 0.25 % ID/g
  Large Intestine: 1.64 ± 0.79 % ID/g
  Liver: 1.00 ± 0.32 % ID/g
  Lungs: 1.96 ± 0.84 % ID/g
  Muscle: 0.35 ± 0.13 % ID/g
  Small Intestine: 0.59 ± 0.25 % ID/g
  Spleen: 2.43 ± 1.34 % ID/g
PSMA+ tumor, 2 h post injection, n = 4, listed as [86Y]YIII-pepa-pic2-C-Hex-KuE
  Tumor +: 12.53 ± 2.95 % ID/g
PSMA- tumor, 2 h post injection, n = 4, listed as [86Y]YIII-pepa-pic2-C-Hex-KuE
  Tumor -: 1.20 ±0.45 % ID/g
Imaging and biodistribution data
  enhancement of probe localization in kidneys compared to tumor tissue: 6–10 fold

Reference: article PMC12703665, “A Trifunctional, Rare-Earth Theranostic Chelator Platform to Enable Diagnostic Nuclear Imaging, Surgical Resection, and Radiotherapy” (Journal of the American Chemical Society, 2025)
